In patent US20020077289A1, “Angiostatin and endostatin binding proteins and methods of use” (priority 2000, published 2002):
Entries after “also recorded” stand apart in the source; their conditions may differ. Bridges are numbered along the chain shown (N, C = ends). Where no end group is shown, it is not given here.

Tests used:
[1] = test system: B16-BL6 melanoma cells; assay: B16-BL6 experimental metastasis assay; assay type: in vivo, C57BL/6J mice; settings: co-injection of 1.5 nmol rhEndostatin and up to 375 nmol control peptide; p>0.11
Description: C57BL/6J mice were injected via the tail vein with 5×10^4 B16-BL6 melanoma cells on day 0. On day 3, groups of five mice received daily subcutaneous doses of either buffer control, 1.5 nmol (1.5 mg/kg/day) of rhEndostatin in combination with 0, 15, 75 or 375 nmol of control or E37 peptide, or control or E37 peptide alone for eleven days. All mice were sacrificed on day 14, and the number of pulmonary surface metastases in each animal counted. Error bars indicate standard deviation of the mean.
C57BL/6J mice (n=8) were injected intravenously (i.v.) with 5×10^4 B16-BL6 cells/mouse. Three days later treatment commenced. 100 μl of citrate-phosphate buffer (66 mM Sodium Phosphate, 17 mM Citric acid, 59 mM NaCl pH 6.2) containing 1.5 nmol of rhEndostatin and 100 μl of PBS containing either 0, 15, 75 or 375 nmol of control or E37 peptide were mixed and injected subcutaneously (s.c.) daily for 11 days. All mice were then sacrificed, their lungs removed and the number of surface metastases counted. Results were analyzed for statistical significance using the 2-tailed Student's t-test.
The following experiment was conducted to determine the interaction of E37 peptide and Endostatin protein. Briefly, the B16BL6 experimental metastasis assay, as known to those of skill in the art and further described in International Patent Application number PCT/US99/11418, was performed as follows. 5×10^4 B16-BL6 cells in 200 μl of PBS were injected into C57BL/6J mice via the tail vein. Three days post injection treatment was started. The injection received by eight groups of mice were: 1) citrate phosphate/PBS buffer, 2) ^30 μg Endostatin protein (in 100 μl PBS), 3) 30 μg Endostatin protein (in 200 μl PBS), 4) 30 μg Endostatin protein plus 50 times molar excess of control peptide (in 200 μl PBS), 5) 30 μg Endostatin protein plus 250 times molar excess of control peptide (in 200 μl PBS), 6) 30 μg Endostatin protein plus 10 times molar excess of E37 peptide (in 200 μl PBS), 7) 30 μg Endostatin protein plus 50 times molar excess of E37 peptide (in 200 μl PBS), and 8) 30 μg Endostatin protein plus 250 times molar excess of E37 peptide (in 200 μl PBS). Doses were administered daily for eleven days posterior to the thoracic cavity subcutaneously. All mice were sacrificed, the lungs removed and the number of surface metastases in each animal were counted under a stereo microscope.

[2] = test system: HUVEC microfilaments; assay: Fluorescent staining of formalin fixed endothelial cells with Alexa 488-labeled rhEndostatin; assay type: cell-based, human; settings: 50-fold molar excess (100 μM) of peptide; 40 μg/ml (2 μM) Alexa-rhEndostatin
Description: (A), HUVECs, (B), HAECs and (C), HMVECs were incubated in the presence of 40 micrograms per milliliter (μg/ml) Alexa 488-labeled rhEndostatin and photographed at 100× magnification under Alexa 488 (green) excitation wavelength. (D) and (E), HUVECs were incubated simultaneously in anti-tropomyosin TM311 ascites fluid and 40 micrograms per milliliter (μg/ml) Alexa 488-labeled rhEndostatin followed by incubation in Alexa 594 conjugated goat anti-mouse IgG (H+L). The same field was photographed under Alexa 488 (green) and Alexa 594 (red) excitation wavelengths at 100× magnification.
HUVECs were incubated in the presence of 40 micrograms per milliliter (μg/ml) Alexa 488-labeled rhEndostatin alone (A), or in the presence of a 50-fold molar excess of control peptide (B), or E37 peptide (C). Cells were photographed using the same exposure times at 100x magnification under Alexa 488 (green) excitation wavelength.
To detect the binding of Alexa-labeled rhEndostatin 1×10^4 HUVEC, HMVEC and HAECs were plated on 1.5% gelatin coated Nalge Nunc Lab Tek II chamber slides (Naperville, Ill.) and fixed in 10% neutral buffered formalin followed by a methanol wash. The chamber slides were incubated in PBS/1% calf serum containing 40 μg/ml (2 μM) of Alexa 488-labeled rhEndostatin (Narum et al., manuscript in preparation) for 1 hr at room temperature. The slides were washed in PBS, coverslips mounted using fluorescent mounting media (Kirkegaard and Perry Laboratories, Gaithersburg, Md.) and cells photographed under Alexa 488 excitation wavelength. Co-localization studies were performed as above except cells were incubated in PBS/1% calf serum containing 1:200 mouse anti-tropomyosin TM311 (Sigma, St. Louis, Miss.) and 40 μg/ml of Alexa 488-labeled rhEndostatin followed by incubation with goat anti-mouse IgG (H+L) conjugated to Alexa 594 (Molecular Probes, Eugene, Oregon). The same fields were photographed under Alexa 488 and Alexa 594 wavelengths. […]

[3] = target: T1, rhTM3 (human tropomyosin isoform 3) (Homo sapiens, UniProt P09493); assay: Surface plasmon resonance (BIAcore) binding to immobilized rhTM3
T1 construct: made in house; host or cells: E. coli BL21 (DE3), pET-21a(+)
T1 sequence (P09493 1-284 isoform P09493-3): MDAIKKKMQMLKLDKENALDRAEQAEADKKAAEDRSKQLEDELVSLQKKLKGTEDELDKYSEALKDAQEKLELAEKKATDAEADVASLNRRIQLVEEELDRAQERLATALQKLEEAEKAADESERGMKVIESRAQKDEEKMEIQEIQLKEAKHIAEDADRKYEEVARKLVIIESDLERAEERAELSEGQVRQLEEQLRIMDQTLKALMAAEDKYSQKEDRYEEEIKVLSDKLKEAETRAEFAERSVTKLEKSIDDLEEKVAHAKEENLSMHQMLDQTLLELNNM
Description: (A), 0, 10, 20, 40, 80 and 160 micromolar (μM) of rhEndostatin were injected at 5 microliters per minute (μl/minute) for 960 seconds through a biosensor flow cell that had been activated and blocked as a control for bulk refractive index and subsequently through a flow cell to which 3200 response units (RU) of rhTM3 had been immobilized. The binding kinetics were recorded and the differences between the two curves plotted for each rhEndostatin concentration. (B), 0, 11.5, 23 and 46 micromolar (μM) of rhAngiostatin were injected at 5 microliters per minute (μl/minute) for 900 seconds over a flow cell containing 3200 RU of rhTM3 as above. Samples were run in duplicate, the data corrected for bulk shift and the average of the 2 curves plotted. (C), Injection of 5 micromolar (μM) of rhEndostatin at 5 microliters per minute (μl/minute) for 240 seconds in the presence of 0, 6, 15, 30 and 45 micromolar (μM) of soluble rhTM3 over a flow cell containing 2000 RU of rhTM3. Samples were run in duplicate, the reference cell values subtracted and the average of each of the 2 curves plotted. The spikes in RU seen at the beginning and end of each injection are due to lag in flow caused by the rhTM3 and reference cells being non-adjacent.
Interactions between purified soluble rhEndostatin and rhTM3 were evaluated by surface plasmon resonance using the BIAcore 3000 (BiaCore, Piscataway, N.J.). The purified rhTM3 was immobilized on the flow cell of a CM-5 BIAcore biosensor chip. The running buffer was 0.01 M HEPES, pH 7.4, 0.15M NaCl and 0.005% polysorbate 20 (v/v). The competition experiments involving soluble rhTM3 were performed using PBS pH 7.4 as running buffer. All measurements were performed at 25° C. To correct for differences in bulk refraction all protein preparations were passed over an activated and blocked flow cell to which no protein had been coupled. Effects due to bulk shift were subtracted from experimental data.
Surface plasmon resonance performed using the BIAcore 3000 (BiaCore, Piscataway, N.J.) was used to assess the kinetics of rhEndostatin/rhTM3 binding. […]

[4] = target: T2, rhEndostatin (Homo sapiens, UniProt P39060); assay: ELISA of tropomyosin binding to rhEndostatin coated wells; settings: wells coated with 5 μg/ml rhEndostatin or BSA, detection with TM311 anti-tropomyosin
T2 construct: rhEndostatin were produced in P. pastoris and purified to homogeneity; made in house; host or cells: Pichia pastoris
T2 sequence (P39060 1572-1754 limits assumed): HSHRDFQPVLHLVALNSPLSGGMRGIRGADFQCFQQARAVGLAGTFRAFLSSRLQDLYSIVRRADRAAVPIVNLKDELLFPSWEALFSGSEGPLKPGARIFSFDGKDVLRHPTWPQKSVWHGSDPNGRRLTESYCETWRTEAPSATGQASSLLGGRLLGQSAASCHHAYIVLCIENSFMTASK
Description: FIG. 13 provides a graph showing that rhTM3 binds rhEndostatin in vitro. The wells of a 96-well plate were coated with either 5 micrograms/milliliter (μg/ml) of rhEndostatin (closed symbols) or BSA (open symbols) and incubated with increasing amounts of control E. coli lysate (circles) or tropomyosin expressing λ21-1 bacterial lysate (squares). The amount of tropomyosin binding to each well was determined spectrophotometrically following the addition of the TM311 anti-tropomyosin ascites fluid, alkaline phosphatase conjugated anti-mouse IgG and substrate. Error bars indicate standard deviation of the mean.
Plates were coated with 5 μg/ml of BSA or rhEndostatin and blocked. Dilutions of λ21-1 or control lysate were added and incubated for 1 hour at 37° C., followed by incubation with 1:500 diluted anti-tropomyosin TM311 ascites fluid (Sigma, St. Louis, Miss.). Following incubation in 1:5000 diluted anti-mouse IgG (H+L) conjugated to alkaline phosphatase (Promega, Madison, Wis.) wells were developed using Blue Phos Phosphatase Substrate (Kirkegaard and Perry, Gaithersburg, Md.) and the OD635 measured.
In this experiment the wells of a 96 well plate were either coated with 5 μg/ml of Endostatin protein or BSA protein. […] The wells were washed and incubated with anti-tropomyosin antibodies followed by anti-mouse IgG AP conjugated antibodies and developed using KPL Blue Phos microwell phosphatase solution. The OD635 was measured after a one hour incubation at room temperature and the results plotted in FIG. 8.
Recombinant human Endostatin protein and hTM3 were also shown to interact in a capture ELISA (FIG. 8).

[5] = target: recombinant human Endostatin protein (human); assay: cell-based or functional assay

In the case of “CSNSDKPKCGGGS (disulfide 1-9 (inferred)) [control peptide, reference compound]”, the “incidence of metastatic lesions on the lungs versus 1.5 nmol rhEndostatin alone” value [1] is reported as “statically indistinguishable” and the “inhibition of binding of Alexa-labeled rhEndostatin to HUVEC microfilaments” value [2] is reported as “not”.

In the case of “rhTM3: recombinant human tropomyosin isoform 3 (fibroblast tropomyosin), SEQ ID NO:119; also as λ21-1 bacterial lysate (EKVAHAKEENLSMHQMLDQTLLELNNM)”, the “competition for binding of rhEndostatin to immobilized rhTM3” value ([3]; 5 μM rhEndostatin with 0-45 μM soluble rhTM3, 2000 RU immobilized rhTM3) is reported as “competed for the binding of rhEndostatin”, the “binding of tropomyosin to rhEndostatin” value [4] is reported as “binds” and the “binding of tropomyosin to rhEndostatin” value ([4]; listed as hTM3) is reported as “higher immunoreactivity in rhEndostatin coated wells than in wells coated with BSA; also recorded: binds”. For the same molecule, the “binding of tropomyosin to rhEndostatin” value ([4]; listed as tropomyosin) was “considerably more tropomyosin bound”.

CTHWWHKRCGGGS (disulfide 1-9) [E37 peptide (synthetic, cyclized)] gave a decrease in the anti-tumor activity of rhEndostatin (B16-BL6 lung metastases), 1.5 nmol rhEndostatin co-injected with 15 nmol E37 peptide [5] of 11 percent, a decrease in the anti-tumor activity of rhEndostatin (B16-BL6 lung metastases), 1.5 nmol rhEndostatin co-injected with 75 nmol E37 peptide [5] of 30.5 percent and a decrease in the anti-tumor activity of rhEndostatin (B16-BL6 lung metastases), 1.5 nmol rhEndostatin co-injected with 375 nmol E37 peptide [5] of 84.5 percent. For the same molecule, the inhibition of lung metastasis, 1.5 nmol rhEndostatin co-administered with a 250-fold molar excess of E37 peptide [5] was 11%, the inhibition of the formation of lung metastasis (B16BL6), 30 µg Endostatin protein plus 10 fold molar excess of E37 peptide [5] was 76% and the inhibition of the formation of lung metastasis (B16BL6), 30 µg Endostatin protein plus 50 fold molar excess of E37 peptide [5] was 61%. The inhibition of the formation of lung metastasis (B16BL6), 30 µg Endostatin protein plus 250 fold molar excess of E37 peptide [5] was 21%.

B1: rhAngiostatin K1-3: recombinant human Angiostatin kringles 1-3 produced in P. pastoris, used as negative control (protein)
chain: VYLSECKTGNGKNYRGTMSKTKNGITCQKWSSTSPHRPRFSPATHPSEGLEENYCRNPDNDPQGPWCYTTDPEKRYDYCDILECEEECMHCSGENYDGKISKTMSGLECQAWDSQSPHAHGYIPSKFPNKNLKKNYCRNPDRELRPWCFTTDPNKRWELCDIPRCTTPPPSSGPTYQCLKGTGENYRGNVAVTVSGHTCQHWSAQTPHTHNRTPENFPCKNLDENYCRNPDGKRAPWCHTTNSQVRWEYCKIPSCDSSPV
With B1 the “specific binding to immobilized rhTM3” value ([3]; negative control, similar concentrations (0-46 μM) passed over the rhTM3 chip) was “no evidence of specific binding”.
